Reference: US20250011363A1, “OPTIMIZED SHORTENED PEPTIDE THAT BINDS TO ACETYLCHOLINE RECEPTOR, AND USE THEREOF” (SKINMED CO., LTD., priority 2021, published 2025)

target: acetylcholine receptor; test: SPR, receptor on CM5 chip, peptide 10 µM

Binding affinity (RU)	Binder
139	KRRRSK [6mer-1-523]
126	KKRLCR [6mer-1-534]
137	KRLVSK [6mer-1-530]
148	KKGRQK [6mer-1-524]
142	KKGIYR [6mer-1-527]
139	RRSLCK [6mer-1-529]
126	RKRRLR [6mer-1-522]
145	RKWFSR [6mer-1-533]
139	RRQLRR [6mer-1-525]
139	KRSYTR [6mer-1-528]
135	RKGQTK [6mer-1-531]
148	KRGYTR [6mer-1-526]
121	KKSQLR [6mer-1-532]

target: acetylcholine receptor; test: SPR, AchR immobilized on CM5 chip, peptide 10 uM

Binder	Binding affinity (RU)
RRRFSK [6mer-1-368]	145
RRSQRR [6mer-1-335]	148
KKWYRK [6mer-1-369]	144
RKVFRK [6mer-1-352]	142
KKRICK [6mer-1-365]	142
KRLYSK [6mer-1-349]	123
KKSQCR [6mer-1-344]	125
RKRFCR [6mer-1-342]	131
KRLYLK [6mer-1-353]	126
KRRQTR [6mer-1-357]	148
RRGLRK [6mer-1-351]	141
KRLLCK [6mer-1-340]	142
KKRIYR [6mer-1-346]	123
RKGFSK [6mer-1-367]	154
KRWFCR [6mer-1-366]	133
KKQQSK [6mer-1-347]	126
KRVFLK [6mer-1-360]	148
KRQFLR [6mer-1-359]	131

Binder	Binding affinity (RU)
KRQIRR [6mer-1-363]	121
RKSRRR [6mer-1-337]	144
KRVVYK [6mer-1-362]	133
KRGYSK [6mer-1-356]	153
KKVFLK [6mer-1-354]	153
KKSIQK [6mer-1-339]	147
KKQVLK [6mer-1-338]	127
RKSVQR [6mer-1-361]	127
KRRYTR [6mer-1-358]	124
KRVVTK [6mer-1-336]	154
KKLYTK [6mer-1-343]	135
KKLLCR [6mer-1-345]	147
RKVFYR [6mer-1-355]	148
RKQRLK [6mer-1-348]	142
RKRQSK [6mer-1-364]	124
KKLQTK [6mer-1-350]	153
RKQQQR [6mer-1-341]	128

More lines, now with the values ahead:

Binding affinity (RU)	Binder
142	RKQLYK [6mer-1-370]
153	KRSLQK [6mer-1-378]
125	RKLFCK [6mer-1-389]
149	KKVRRR [6mer-1-394]
121	KRLQLR [6mer-1-380]
131	RRQRCK [6mer-1-391]
125	KKRQTK [6mer-1-395]
135	RRVQTR [6mer-1-392]
148	KKQFQK [6mer-1-374]
145	RKLRSK [6mer-1-372]
153	KRSLTR [6mer-1-371]
125	KRWILR [6mer-1-399]
137	KKQYYR [6mer-1-398]
127	RRSYQK [6mer-1-386]
142	RRLLQR [6mer-1-388]
121	RKLQQR [6mer-1-390]
148	RKVICK [6mer-1-384]
148	KRLYYK [6mer-1-393]
148	KRQIQK [6mer-1-396]
125	KRLILR [6mer-1-397]
154	RRVFYR [6mer-1-375]
149	KRGVLK [6mer-1-373]
148	RKRRTK [6mer-1-383]
127	KRQVLR [6mer-1-385]
121	RRQLRK [6mer-1-376]
124	RKGFYR [6mer-1-381]
139	KRQYTR [6mer-1-382]
148	KKGRLR [6mer-1-387]
153	KRRISK [6mer-1-379]
148	KRWITR [6mer-1-377]
